Assay: soluble on expression in E. coli; label from the status in PepcDB or PDB records
With “MVSKIRTFGWVQNPGKFENLKRVVQVFDRNSKVHNEVKNIKIPTLVKESKIQKELVAIMNQHDLIYTYKELVGTGTSIRSEAPCDAIIQATIADQGNKKGYIDNWSSDGFLRWAHALGFIEYINKSDSFVITDVGLAYSKSADGSAIEKEILIEAISSYPPAIRILTLLEDGQHLTKFDLGKNLGFSGESGFTSLPEGILLDTLANAMPKDKGEIRNNWEGSSDKYARMIGGWLDKLGLVKQGKKEFIIPTLGKPDNKEFISHAFKITGEGLKVLRRAKGSTKFTRVPKRVYWEMLATNLTDKEYVRTRRALILEILIKAGSLKIEQIQDNLKKLGFDEVIETIENDIKGLINTGIFIEIKGRFYQLKDHILQFVIPNRLGKPDLVKSELEEKKSELRHKLKYVPHEYIELIEIARNSTQDRILEMKVMEFFMKVYGYRGKHLGGSRKPDGAIYTVGSPIDYGVIVDTKAYSGGYNLPIGQADEMQRYVEENQTRNKHINPNEWWKVYPSSVTEFKFLFVSGHFKGNYKAQLTRLNHITNCNGAVLSVEELLIGGEMIKAGTLTLEEVRRKFNNGEINF” the “soluble on expression in E. coli” value was “soluble”. In the case of “MPTTVNDLLRTYPADLGGVDREAMARCIEECLRCAQACTACADACLSEPTVADLTKCIRTDMDCADVCTATAAVLSRHTGYDANVTRAVLQACATVCAACGDECARHAGMHEHCRVCAEACRSCEQACQELLAGLGLEHHHHHH”, the “soluble on expression in E. coli” value is reported as “not soluble”. In the case of “MKYRDLRDFLAQLERQGELKRITAPVSTRLEMTEIADRVLRAGGPALLFENARHNDAPADMPVLANLFGTPRRVAWGMGADDVGALRETGELLASLREPEAPKGLRDALAKVSMLKAALWDMSPKTVRSAACQEIVWEGADVDLGRLPIQTCWPGDVAPLLAWGLVITRGPNARRQNLGIYRQQPLGPNKLIMRWLSHRGGALDFRDHAQAHPGKPFPIAVALGADPATILGAVTPVPDTLSEYQFAGLLRGSRTEVVKALGSDLSVPASAEIVLEGHLLPADDPRAVAAAVPEGANPPPATGYEMALEGPYGDHTGYYNEQDWFPVFTVDRITMRRNPIYHSTYTGKPPDEPAVLGVALNEVFVPLLRRQLPEIVDFYLPPEGCSYRLAVVSIRKQYAGHAKRVMFGLWSVLRQFMYTKFIVVVDEDIDPRDWTEVVWAMTTRMDPVRDTVLVENTPIDYLDFASPVSGLGGKMGLDATNKWPGETSREWGTPIHMDEAVKRRVDAMWDTLGLAAALEHHHHHH”, the “soluble on expression in E. coli” value is reported as “not soluble”. In the case of “MTHTVHLHLEETDNLALQRLCGSFDNNLDLLAKALDIHISRRFEHFTFNGAFAHAGKRALLKLLETAQTRDLNDGDIRLAAVEAQTEDAGHQEKNHDHAYYFRTKRGSIGGRTPRQNGYIRALLNHDIVFGLGPAGTGKTYLAVAAAVDAMEKHQVERIILVRPAVEAGEKLGFLPGDLTQKVDPYLRPLYDALYDLMGFDRVTKLIEKGLIEIAPLAYMRGRTLNGAYIILDEAQNTTPEQMKMFLTRIGFGAKAVITGDTSQIDLPKNIKSGLKDAREKLHNVEGLYFHTFTGEDVVRHPLVQKIVEAYESAEHD”, the “soluble on expression in E. coli” value is reported as “not soluble”. With “MQQIFFKDPILGEVLFDQQTKWMYELVETEAFRRLRNIKQLGINFHFYPGGVHTRYSHSLGVYELLRRILNTPAFAPIDENKKQTVLVAGLLHDIGHAPHSHAFEIYFAKAPNFKKELFIHEEVTTLFVNSEPIKSILKANQIDPKLVAALIDENKELKPSNYWMRQLISSDLDADRMDYLLRDSYFTGTSHSLIDYQTIIKEMDCVKVKGIYEIFFKDKCLPLIENFLITRHHMYQSIYSDGRSISTELNLWFVFQRIKDLVDKNQFDFNGYKTLEQVCLPLLKNEHFDKKMLPAFVKLDDYVFQSFFVNLYQTTKDKILKKLLDSYLNSLKFEIKFYETKEQRDLDFEKQASKYKDAKYFITKFNNQFKGFYEGWSSHKNELKIKTMQNKHTNLSEISMLVKRSNELFFENALYKWANVFYRL” the “soluble on expression in E. coli” value was “soluble”. For “MSGVRFPSGSLKDVRFFLHLFFSSKYGIIYVRYLDEEGTIMKQIIISVGREFGSGGHIVAQKLAEHYDIPIFNKELLEEMARKEGYSEKALEKYDEKPVNFGFMPLPYAGGNIPIEQEIAMKQFEFIKNKADAGESFVIVGRCADEILAYNPNLVSVFITGDRESKIARVMDREGLDRKQAINKMKRMDKIRKTYHNFYCRNKWGDSRGYDICINTGKTDFDTAKNMVVECVDKLKERSE”, the “soluble on expression in E. coli” value was “not soluble”. For “GPGSMRSTAELSSPLSISLPCSLSAEPPHHTLPATTANIIALRRAADPSTFTHTHTNTARPPLPAPYFRQRDSSWCSHASPHAHRHTHTYPSLSLPAPRFFFAHRYAAAALPRRLPAIMTHEFHSLFLPLAAEEQAVFADFFPTLVASSTSIQDGVAGEHSLQPTVSATLDTYSSACATSPHSPGECGSLPEVGRGAATDAQARCDAPLRSLVFAIGSARADAVIVVLRRGDVVLYGLDRLHTPPYEKCRIRPLPTTQQLMAARENARRYSNADGAASAGSWTDASCSGGVAGSRSVVNGGVEATCAALLPLHIGYCCRIPLSASFSSATPPAGGPRRGGGGGSRDERDEDVVYLRGIVGSSDGRVSLFSDTSYTLSFAAHDIPVAQVDAVLLPPCTLDRRVSTNASPTTSTRGFSSTGAGANTRTAPSGELTSPTSPQPQERLARATQRLGLVTSGNDGVVLLWRRLGDSMSPIVVVRPSTFSSRAAYAVYHPSALSALLSSWAPPSQREAAVDAELSCPPSCLLHAATSTSHTLRVRQLASISPKPTHKSLSSAARRESVEEAAPTSMSAALPGSWSATVTAIAAHDSVTLVAMGASLLSLVKLNPRSAARVWKAAESITQLVLIDSVALAVCARSGTVHVLTIHPGTGRVVRQRVYYSYKNRAIHHTSLHVASLLMTIVDVCGSTELVQLPTDVMLPCDVRLRRGEYTSGDAANVNLLASMAALRAKVCIEAIKGGSGGGVSGSVAANEAEVTGGSTSMYEANAALDQLNERLLLARYAVPEECDNFMGANVHVF”, the “soluble on expression in E. coli” value was “not soluble”. In the case of “SHMSLTPDQIVAALQERGWQAEIVTEFSLLNEMVDVDPQGILKCVDGRGSDNTQFCGPKMPGGIYAIAHNRGVTTLEGLKQITKEVASKGHVPSVHGDHSSDMLGCGFFKLWVTGRFDDMGYPRPQFDADQGAKAVENAGGVIEMHHGSHAEKVVYINLVENKTLEPDEDDQRFIVDGWAAGKFGLDVPKFLIAAAATVEMLGGPKKAKIVIP”, the “soluble on expression in E. coli” value is reported as “soluble”. With “MVRDMKHTVEVMIPEAEIKARIAELGRQITERYKDSGSDMVLVGLLRGSFMFMADLCREVQVSHEVDFMTASSYGSGMSTTRDLKILKDLDEDIRGKDVLIVEDIIDSGNTLSKVREILSLREPKSLAICTLLDKPSRREVNVPVEFIGFSIPDEFVVGYGIDYAQRYRHLPYIGKVILLDE” the “soluble on expression in E. coli” value was “soluble”. In the case of “MAHHHHHHMLTIVDELKAAVMARHEADAPKMKILKEKYKNEKLSDATIDAAYGGMRGITGLIYESSMLDKEQGICFRGMTIPECCEKIPKSWKGGTSPLPEGMLWLLMTGSIPTDKQVKELHVELHRRADNEAITAATKTIASLPENTHPMTQLSTGVLALQAFSKFAPAYASGKAIKSNFWEYALEDSLDIIARTPYLAAAIYNRLTTGRAAVLNPANPDLDWAANFTNMLGYQDEKFWDCMRLYLSLHADHEGGNVSAHATTLVASALSDPYLSFSAGLNGLAGPLHGLANQESLSYLFEMRDKCKAAGVNMKDRKELAAGLEKLTWERLNAKRVIPGYGHAVLRIPDPRYMCLREYCLKHFPDDELFFLVDTIYSIMPDILKKHGKTKNPFPNVDAHSGMLLQHFGLTEQNFYTVLFGISRQLGALTGVVWDRLQGRPIERPKSITSDALFKKFKIE”, the “soluble on expression in E. coli” value is reported as “not soluble”. With “METEAIDGYITCDNELSPEREHSNMAIDLTSSTPNGQHASPSHMTSTNSVKLEMQSDEECDRKPLSREDEIRGHDEGSSLEEPLIESSEVADNRKVQELQGEGGIRLPNGERPFHCNQCGASFTQKGNLLRHIKLHSGEKPFKCPFCSYACRRRDALTGHLRTHSVGKPHKCNYCGRSYKQRSSLEEHKERCHNYLQNVSMEAAGQVMSHHVPPMEDCKEQEPIMDNNISLVPFERPAVIEKLTGNMGKRKSSTPQKFVGEKLMRFSYPDIHFDMNLTYEKEAELMQSHMMDQAINNAITYLGAEALHPLMQHPPSTIAEVAPVISSAYSQVYHPNRIERPISRETADSHENNMDGPISLIRPKSRPQEREASPSNSCLDSTDSESSHDDHQSYQGHPALNPKRKQSPAYMKEDVKALDTTKAPKGSLKDIYKVFNGEGEQIRAFKCEHCRVLFLDHVMYTIHMGCHGYRDPLECNICGYRSQDRYEFSSHIVRGEHTFH” the “soluble on expression in E. coli” value was “soluble”. In the case of “MRIWNRIRCISTIRKNPTCQDVKAPLVSSQVFDPDVWSWNSAPESSLDLPIDSSPNFSMPPATSSETEFAENEESTSSSDDKKKRSEVIEENRSDGHAPIKSALSILMRSLQKSSSMTTSLSDIDVTLFNFHSTKFAERLLNRNVSSVVIVESSHVFSKNAKKFASEFSNVSAYRADIYTLMGVGRKKTAQFPRKMMFADFGKNETPEQYENIHPLTLTSAESSSNSEHLHAKFRRPHLLGVLPTPTIQRTILDSMIQHVLLHHSGNDEDTIFRYGDTNLLTFLGSGILAQYTCSTDNRLNFLSHQHRRHSALFNKLFEVKMLQTRQSEDPETAEIPIGHPPTSFHPLLPTAKKITHEKKLSDVNLTNGLQYPVQILPQKHLKIGGNEVTTENGMGRMLVDYACFMTQIGRQPNAKAVDQVVRLLWPESALSIPADILGDHKIGQLPNDHLDVIFQHVHEELHNTSIAKTYCNELKIKRAI”, the “soluble on expression in E. coli” value is reported as “not soluble”. With “MAPITVGDVVPDGTISFFDENDQLQTVSVHSIAAADGFLDFDLRIGVFGFSEVSMSHVPGFIGKAEELKSKGIDEIICFSVNDPFVMKAWGKTYQENKHVKFVADGSGEYTHLLGLELDLKDKGLGIRSRRFALLLDNLKVTVANVENGGEFTVSSAEDILKALLEHHHHHH” the “soluble on expression in E. coli” value was “not soluble”. In the case of “LIGYVRVSTNDQNTDLQRNALNCAGCELIFEDKISGTKSERPGLKKLLRTLSAGDTLVVWKLDRLGRSMRHLVVLVEELRERGINFRSLTDSIDTSTPMGRFFFHVMGALAEMERELIVERTKAGLETARAQGRIGGRRPKLTPEQWAQAGRLIAAGTPRQKVAIIYDVGVSTLYKRFPAGDK”, the “soluble on expression in E. coli” value is reported as “soluble”. With “MERREEQPGAAGAGAAPALDFTVENVEKALHQLYYDPNIENKNLAQKWLMQAQVSPQAWHFSWQLLQPDKVPEIQYFGASALHIKISRYWSDIPTDQYESLKAQLFTQITRFASGSKIVLTRLCVALASLALSMMPDAWPCAVADMVRLFQAEDSPVDGQGRCLALLELLTVLPEEFQTSRLPQYRKGLVRTSLAVECGAVFPLLEQLLQQPSSPSCVRQKVLKCFSSWVQLEVPLQDCEALIQAAFAALQDSELFDSSVEAIVNAISQPDAQRYVNTLLKLIPLVLGLQEQLRQAVQNGDMETSHGICRIAVALGENHSRALLDQVEHWQSFLALVNMIMFCTGIPGHYPVNETTSSLTLTFWYTLQDDILSFEAEKQAVYQQVYRPVYFQLVDVLLHKAQFPSDEEYGFWSSDEKEQFRIYRVDISDTLMYVYEMLGAELLSNLYDKLGRLLTSSEEPYSWQHTEALLYGFQSIAETIDVNYSDVVPGLIGLIPRISISNVQLADTVMFTIGALSEWLADHPVMINSVLPLVLHALGNPELSVSSVSTLKKICRECKYDLPPYAANIVAVSQDVLMKQIHKTSQCMWLMQALGFLLSALQVEEILKNLHSLISPYIQQLEKLAEEIPNPSNKLAIVHILGLLSNLFTTLDISHHEDDHEGPELRKLPVPQGPNPVVVVLQQVFQLIQKVLSKWLNDAQVVEAVCAIFEKSVKTLLDDFAPMVPQLCEMLGRMYSTIPQASALDLTRQLVHIFAHEPAHFPPIEALFLLVTSVTLTLFQQGPRDHPDIVDSFMQLLAQALKRKPDLFLCERLDVKAVFQCAVLALKFPEAPTVKASCGFFTELLPRCGEVESVGKVVQEDGRMLLIAVLEAIGGQASRSLMDCFADILFALNKHCFSLLSMWIKEALQPPGFPSARLSPEQKDTFSQQILRERVNKRRVKEMVKEFTLLCRGLHGTDYTADY” the “soluble on expression in E. coli” value was “soluble”. With “MSQSKVAMKKDSMRKNKKLVINIALDKEVLASRVEADHDLGSVRDEKERLESSERRREVCSKAEDIVDKAIDNHSRVRGDGIMREADVGTGLSGALNRLREQGTFKEEGKVVGVKDNNHEDDRFKDRFKDIQIQRVNKWGRIMTEKEAYRSLCHGFHGKGPGKKKQEKQRKKHEDKSKQMESSERSVERIREIHAISKTPYIVL” the “soluble on expression in E. coli” value was “soluble”.

Source: the DeepSol protein solubility set
